The assay deals with CD2 (human) (UniProt P06729). Description: dTomato EVs from cells stably expressing the codon-optimized scFv on Jurkat T cells, flow cytometry. (In general: A flow cytometer gives signals particle by particle.)
Sequence of UniProt P06729 (P06729 25-351): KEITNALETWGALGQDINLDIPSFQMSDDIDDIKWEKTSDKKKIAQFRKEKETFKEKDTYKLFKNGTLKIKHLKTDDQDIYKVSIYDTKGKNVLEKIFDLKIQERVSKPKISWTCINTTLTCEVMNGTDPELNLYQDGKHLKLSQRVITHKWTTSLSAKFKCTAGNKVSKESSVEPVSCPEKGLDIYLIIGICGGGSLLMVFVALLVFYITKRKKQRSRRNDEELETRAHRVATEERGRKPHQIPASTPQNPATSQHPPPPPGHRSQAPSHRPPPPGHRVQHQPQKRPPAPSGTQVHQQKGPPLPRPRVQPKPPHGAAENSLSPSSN

B1: anti-CD2 scFv displayed on EVs via the PDGFR transmembrane domain, helical (α-helix) linker (scFv)
scFv: DYKDHDGDYKDHDIDYKDDDDKNIMMTQSPSSLAVSAGEKVTMTCKSSQSVLYSSNQKNYLAWYQQKPGQSPKLLIYWASTRESGVPDRFTGSGSGTDFTLTISSVQPEDLAVYYCHQYLSSHTFGGGTKLEIKRGGGGSGGGGSGGGGSQLQQPGAELVRPGSSVKLSCKASGYTFTRYWIHWVKQRPIQGLEWIGNIDPSDSETHYNQKFKDKATLTVDKSSGTAYMQLSSLTSEDSAVYYCATEDLYYAMEYWGQGTSVTVSSDQSNSEEAKKEEAKKEEAKKSNSAVGQDTQEVIVVPHSLPFKVVVISAILALVVLTIISLIILIMLWQKKPR
As for B1, the fold increase of EV binding over non-targeted EVs is more than 100 fold.

Values taken from patent US20250312479A1.
